“And” between values parts separate entries of the source, which are not always exact repeats. Identical values can stand only once. Like-named read-outs stand apart in the source and are kept apart here.
B1: Wild type C4H: Arabidopsis P450 cinnamate 4-hydroxylase (C4H) expressed in yeast from pYeDP60-C4H (protein, UniProt P92994 1-505, looked up)
Trans-cinnamate …: MDLLLLEKSLIAVFVAVILATVISKLRGKKLKLPPGPIPIPIFGNWLQVGDDLNHRNLVDYAKKFGDLFLLRMGQRNLVVVSSPDLTKEVLLTQGVEFGSRTRNVVFDIFTGKGQDMVFTVYGEHWRKMRRIMTVPFFTNKVVQQNREGWEFEAASVVEDVKKNPDSATKGIVLRKRLQLMMYNNMFRIMFDRRFESEDDPLFLRLKALNGERSRLAQSFEYNYGDFIPILRPFLRGYLKICQDVKDRRIALFKKYFVDERKQIASSKPTGSEGLKCAIDHILEAEQKGEINEDNVLYIVENINVAAIETTLWSIEWGIAELVNHPEIQSKLRNELDTVLGPGVQVTEPDLHKLPYLQAVVKETLRLRMAIPLLVPHMNLHDAKLAGYDIPAESKILVNAWWLANNPNSWKKPEEFRPERFFEEESHVEANGNDFRYVPFGVGRRSCPGIILALPILGITIGRMVQNFELLPPPGQSKVDTSEKGGQFSLHILNHSIIVMKPRNC
B2: FLAG-tagged C4H: amino-terminal FLAG-epitope tagged C4H expressed in yeast from pYeDP60-FC4H (protein, UniProt P92994 1-505, looked up)
Trans-cinnamate …: B1 Trans-cinnamate …
modifications: N-terminal FLAG tag

Assay: C4H enzyme assay: para-hydroxylation of cinnamic acid by yeast microsomes, HPLC quantification of p-coumarate
Format: biochemical
Conditions: for Km: Arabidopsis C4H in WAT11 yeast microsomes, substrate cinnamic acid; for Turnover (min^−1 ± SD), CO difference spectrum: P450 concentration from CO difference spectroscopy; for turnover rate, calculated using P450 concentrations from CO difference spectroscopy: spectroscopic P450 quantification
Description: C4H assays were carried out in the presence of various concentrations of cinnamic acid as previously described (Humphreys et al., 1999). Briefly, an NADPH regenerating system consisting of 1 mM NADP^+, 10 mM glucose-6-phosphate, and 1 unit of glucose-6-phosphate dehydrogenase (Sigma, St. Louis, Mo.) was pre-incubated at 30° C. for 5 min to generate NADPH in a final volume of 450 PL of assay buffer. Assays were initiated by the addition of 50 μL of appropriately diluted microsomes and were incubated at 30° C. for 20 min before the reactions were stopped with 100 μL of 3N HCl. Samples were centrifuged for 20 min at 14,000×g and then analyzed by HPLC (Shimadzu Corp., Kyoto, Japan) using a Microsorb-MV C-18 column (Varian Analytical Instruments, Walnut Creek, Calif.) using the following method: solvent A, 1.5% acetic acid in water; solvent B, acetonitrile; flow rate of 1 mL min^−1; 0 to […] in 1.5 min, […], 35 to 100% B in 1 min, 100% B for 5 min. Reaction product was quantified by UV detection at 308 nm. Assays conducted with microsomes isolated from yeast transformed with pYeDP60 served as negative controls.
To evaluate the impact of introducing an amino-terminal FLAG epitotope on C4H enzymatic activity, kinetic parameters of both native and FLAG-C4H were determined using the same microsomal fractions used for protein quantification. It is important to note that the WAT11 yeast strain was chosen because this strain is engineered to express the Arabidopsis P450 reductase gene ATR1 under the control of the same galactose promoter used to drive P450 expression, eliminating the need to reconstitute the P450/P450 reductase system. Consistent with subcellular targeting of wild-type C4H expressed in yeast, both the native and FLAG-C4H activity was found in the microsomal fraction. […] Turnover rates of native and FLAG-C4H were also evaluated, using both spectroscopic and immunological P450 quantitation. When calculated using P450 concentrations obtained from CO difference spectroscopy, native C4H and FLAG-C4H turnover rates were determined to be 28±0.1 and 83±2.0 min^1, respectively. This difference, although significant, may be associated with variability in reductase activity in this heterologous expression system (data not shown). In comparison to CO difference spectroscopy, the lower concentration of FLAG-C4H obtained by Midwestern blot gives a correspondingly higher turnover rate of 380±7 min^−1.

[1] = P450 concentration from Midwestern blot

Row | Molecule | Km (n=3, read-out: Km app. (±SD)) | Km (read-out: Km^aPP) | Turnover (min^−1 ± SD), CO difference spectrum | turnover rate, calculated using P450 concentrations from CO difference spectroscopy | Turnover (min^−1 ± SD), Midwestern blot [1] | turnover rate, calculated using immunological quantification [1] | Turnover (min^−1 ± SD), Midwestern blot (P450 concentration from Midwestern blot, listed as FLAG-C4H) | turnover rate, calculated using P450 concentrations from CO difference spectroscopy (listed as FLAG-C4H)
1 | B1 | 0.7 ± 0.01 µM | 0.7 ± 0.01 µM | 28 ± 0.1 min⁻¹ | 28±0.1 min^1 | – | – | – | –
2 | B2 | 1.1 ± 0.09 µM | 1.1 ± 0.09 µM | 83 ± 2 min⁻¹ | – | 380 ± 7 min⁻¹ | 380±7 min^1 | 380 ± 7 min⁻¹ | 83±2.0 min^1 and 83±2 min^1
